# T1: RAPGEF6, Q8TEU7
# T1 sequence (Q8TEU7 525-625, limits assumed, looked up): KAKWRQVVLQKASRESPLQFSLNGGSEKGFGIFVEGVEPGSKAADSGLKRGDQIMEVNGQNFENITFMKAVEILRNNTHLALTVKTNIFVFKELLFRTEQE
# T2: LIN7C, Q9NUP9
# T2 sequence (Q9NUP9 88-185, limits assumed, looked up): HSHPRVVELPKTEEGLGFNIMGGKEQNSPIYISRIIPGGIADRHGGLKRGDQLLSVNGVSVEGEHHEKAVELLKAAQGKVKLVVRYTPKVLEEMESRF
# T3: TJP3_3, O95049
# T3 sequence (O95049 375-456, limits assumed, looked up): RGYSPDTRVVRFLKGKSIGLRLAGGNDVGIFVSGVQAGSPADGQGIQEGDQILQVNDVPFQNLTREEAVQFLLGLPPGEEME
# T4: DLG3_3, Q92796
# T4 sequence (Q92796 374-475, limits assumed, looked up): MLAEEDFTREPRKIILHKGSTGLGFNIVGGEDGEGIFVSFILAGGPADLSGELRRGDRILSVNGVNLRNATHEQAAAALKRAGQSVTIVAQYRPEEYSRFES
# T5: LNX2_3, Q8N448
# T5 sequence (Q8N448 463-564, limits assumed, looked up): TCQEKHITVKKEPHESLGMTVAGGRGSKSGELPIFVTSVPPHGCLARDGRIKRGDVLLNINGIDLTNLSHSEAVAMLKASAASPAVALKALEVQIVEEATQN
# T6: APBA3_1, O96018
# T6 sequence (O96018 389-490, limits assumed, looked up): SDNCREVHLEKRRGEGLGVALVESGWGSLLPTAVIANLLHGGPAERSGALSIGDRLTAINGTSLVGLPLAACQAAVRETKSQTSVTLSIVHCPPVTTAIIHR
# T7: ARHGAP21, Q5T5U3
# T7 sequence (Q5T5U3 45-169, limits assumed, looked up): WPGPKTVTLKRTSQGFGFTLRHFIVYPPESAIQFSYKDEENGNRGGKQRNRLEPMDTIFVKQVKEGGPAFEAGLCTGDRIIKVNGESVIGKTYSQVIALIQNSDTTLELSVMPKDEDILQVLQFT
# T8: APBA1_1, Q02410
# T8 sequence (Q02410 651-752, limits assumed, looked up): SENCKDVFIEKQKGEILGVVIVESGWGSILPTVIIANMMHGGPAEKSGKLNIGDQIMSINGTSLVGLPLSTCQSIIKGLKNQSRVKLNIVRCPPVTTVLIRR
# T9: SHANK1, Q9Y566
# T9 sequence (Q9Y566 658-767, limits assumed, looked up): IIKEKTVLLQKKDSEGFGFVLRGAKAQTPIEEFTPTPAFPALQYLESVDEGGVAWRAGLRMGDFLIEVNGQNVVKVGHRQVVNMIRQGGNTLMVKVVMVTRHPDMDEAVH
# T10: FRMPD1, Q5SYB0
# T10 sequence (Q5SYB0 52-145, limits assumed, looked up): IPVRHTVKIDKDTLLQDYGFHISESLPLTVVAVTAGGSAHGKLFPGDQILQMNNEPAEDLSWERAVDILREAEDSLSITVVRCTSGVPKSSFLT
# T11: LRRC7, Q96NW7
# T11 sequence (Q96NW7 1440-1537, limits assumed, looked up): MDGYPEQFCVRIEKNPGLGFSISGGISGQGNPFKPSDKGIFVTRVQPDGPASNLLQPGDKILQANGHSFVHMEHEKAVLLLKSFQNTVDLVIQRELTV
# B1: SDC4, P31431 (peptide)
# chain: KKAPTNEFYA
# B2: DACT1, Q9NYF0 (peptide)
# chain: SGSLKLMTTV
# Biological target: T1, RAPGEF6, Q8TEU7
# Experiment: holdup assay
# Design: key: below the threshold = too weak to quantify, mostly under pKd 3.1 to 4
# Details: plain residues with an end cap or a label only (N-terminal biotin on a linker: ado-ado)
row,Binder,pKd
1,B1,below the threshold
2,B2,below the threshold

# Biological target: T2, LIN7C, Q9NUP9
# Experiment: holdup assay
# Design: key: below the threshold = too weak to quantify, mostly under pKd 3.1 to 4
# Details: plain residues with an end cap or a label only (N-terminal biotin on a linker: ado-ado)
row,Binder,pKd
1,B1,3.78
2,B2,below the threshold

# Biological target: MAGI2_3, Q86UL8
# Experiment: holdup assay
# Design: key: below the threshold = too weak to quantify, mostly under pKd 3.1 to 4
# Details: plain residues with an end cap or a label only (N-terminal biotin on a linker: ado-ado)
# Chain of MAGI2_3, Q86UL8 (Q86UL8 600-682): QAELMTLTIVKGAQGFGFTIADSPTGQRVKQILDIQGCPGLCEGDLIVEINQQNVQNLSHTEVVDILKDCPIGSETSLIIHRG
row,Binder,pKd
1,B1,below the threshold
2,B2,below the threshold

# Biological target: MAGI2_4, Q86UL8
# Experiment: holdup assay
# Design: key: below the threshold = too weak to quantify, mostly under pKd 3.1 to 4
# Details: plain residues with an end cap or a label only (N-terminal biotin on a linker: ado-ado)
# Chain of MAGI2_4, Q86UL8 (Q86UL8 772-865): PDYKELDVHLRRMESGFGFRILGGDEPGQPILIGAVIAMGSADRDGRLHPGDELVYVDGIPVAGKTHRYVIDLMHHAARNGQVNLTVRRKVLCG
row,Binder,pKd
1,B1,below the threshold
2,B2,4.92

# Biological target: DLG2_2, Q15700
# Experiment: holdup assay
# Design: key: below the threshold = too weak to quantify, mostly under pKd 3.1 to 4
# Details: plain residues with an end cap or a label only (N-terminal biotin on a linker: ado-ado)
# Chain of DLG2_2, Q15700 (Q15700 189-283): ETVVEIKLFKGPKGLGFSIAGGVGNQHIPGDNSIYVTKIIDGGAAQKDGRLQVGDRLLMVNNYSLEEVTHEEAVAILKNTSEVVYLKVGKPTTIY
row,Binder,pKd
1,B1,below the threshold
2,B2,5.24

# Biological target: NHERF4_2, Q86UT5
# Experiment: holdup assay
# Design: key: below the threshold = too weak to quantify, mostly under pKd 3.1 to 4
# Details: plain residues with an end cap or a label only (N-terminal biotin on a linker: ado-ado)
# Chain of NHERF4_2, Q86UT5 (Q86UT5 220-308): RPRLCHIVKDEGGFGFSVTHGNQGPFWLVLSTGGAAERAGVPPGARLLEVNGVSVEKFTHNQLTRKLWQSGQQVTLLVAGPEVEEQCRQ
row,Binder,pKd
1,B1,below the threshold
2,B2,below the threshold

# Biological target: T3, TJP3_3, O95049
# Experiment: holdup assay
# Design: key: below the threshold = too weak to quantify, mostly under pKd 3.1 to 4
# Details: plain residues with an end cap or a label only (N-terminal biotin on a linker: ado-ado)
row,Binder,pKd
1,B1,below the threshold
2,B2,below the threshold

# Biological target: Inadl_4, Q8NI35
# Experiment: holdup assay
# Design: key: below the threshold = too weak to quantify, mostly under pKd 3.1 to 4
# Details: plain residues with an end cap or a label only (N-terminal biotin on a linker: ado-ado)
# Chain of Inadl_4, Q8NI35 (Q8NI35 547-651): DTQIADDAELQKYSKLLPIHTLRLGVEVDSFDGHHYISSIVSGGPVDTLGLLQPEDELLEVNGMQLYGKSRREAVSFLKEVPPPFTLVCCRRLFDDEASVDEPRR
row,Binder,pKd
1,B1,below the threshold
2,B2,below the threshold

# Biological target: T4, DLG3_3, Q92796
# Experiment: holdup assay
# Design: key: below the threshold = too weak to quantify, mostly under pKd 3.1 to 4
# Details: plain residues with an end cap or a label only (N-terminal biotin on a linker: ado-ado)
row,Binder,pKd
1,B1,below the threshold
2,B2,4.2

# Biological target: T5, LNX2_3, Q8N448
# Experiment: holdup assay
# Design: key: below the threshold = too weak to quantify, mostly under pKd 3.1 to 4
# Details: plain residues with an end cap or a label only (N-terminal biotin on a linker: ado-ado)
row,Binder,pKd
1,B1,below the threshold
2,B2,below the threshold

# Biological target: T6, APBA3_1, O96018
# Experiment: holdup assay
# Design: key: below the threshold = too weak to quantify, mostly under pKd 3.1 to 4
# Details: plain residues with an end cap or a label only (N-terminal biotin on a linker: ado-ado)
row,Binder,pKd
1,B1,below the threshold
2,B2,below the threshold

# Biological target: PARD3_3, Q8TEW0
# Experiment: holdup assay
# Design: key: below the threshold = too weak to quantify, mostly under pKd 3.1 to 4
# Details: plain residues with an end cap or a label only (N-terminal biotin on a linker: ado-ado)
# Chain of PARD3_3, Q8TEW0 (Q8TEW0 582-685): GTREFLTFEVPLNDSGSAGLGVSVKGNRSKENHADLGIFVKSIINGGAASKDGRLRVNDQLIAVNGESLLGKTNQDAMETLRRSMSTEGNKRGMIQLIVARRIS
row,Binder,pKd
1,B1,below the threshold
2,B2,below the threshold

# Biological target: PDLIM1, O00151
# Experiment: holdup assay
# Design: key: below the threshold = too weak to quantify, mostly under pKd 3.1 to 4
# Details: plain residues with an end cap or a label only (N-terminal biotin on a linker: ado-ado)
# Chain of PDLIM1, O00151 (O00151 1-87): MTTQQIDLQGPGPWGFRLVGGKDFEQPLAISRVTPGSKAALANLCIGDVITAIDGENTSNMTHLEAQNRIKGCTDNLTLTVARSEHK
row,Binder,pKd
1,B1,below the threshold
2,B2,below the threshold

# Biological target: Inadl_8, Q8NI35
# Experiment: holdup assay
# Design: key: below the threshold = too weak to quantify, mostly under pKd 3.1 to 4
# Details: plain residues with an end cap or a label only (N-terminal biotin on a linker: ado-ado)
# Chain of Inadl_8, Q8NI35 (Q8NI35 1425-1530): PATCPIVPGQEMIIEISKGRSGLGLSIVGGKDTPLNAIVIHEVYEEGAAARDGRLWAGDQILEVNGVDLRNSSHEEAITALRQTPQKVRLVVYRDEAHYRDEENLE
row,Binder,pKd
1,B1,below the threshold
2,B2,4.09

# Biological target: T7, ARHGAP21, Q5T5U3
# Experiment: holdup assay
# Design: key: below the threshold = too weak to quantify, mostly under pKd 3.1 to 4
# Details: plain residues with an end cap or a label only (N-terminal biotin on a linker: ado-ado)
row,Binder,pKd
1,B1,below the threshold
2,B2,below the threshold

# Biological target: AHNAK1, Q09666
# Experiment: holdup assay
# Design: key: below the threshold = too weak to quantify, mostly under pKd 3.1 to 4
# Details: plain residues with an end cap or a label only (N-terminal biotin on a linker: ado-ado)
# Chain of AHNAK1, Q09666 (Q09666 4-100): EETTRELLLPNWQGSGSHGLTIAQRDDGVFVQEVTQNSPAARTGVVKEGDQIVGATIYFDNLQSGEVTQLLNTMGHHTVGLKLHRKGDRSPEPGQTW
row,Binder,pKd
1,B1,below the threshold
2,B2,below the threshold

# Biological target: MAGI3_2, Q5TCQ9
# Experiment: holdup assay
# Design: key: below the threshold = too weak to quantify, mostly under pKd 3.1 to 4
# Details: plain residues with an end cap or a label only (N-terminal biotin on a linker: ado-ado)
# Chain of MAGI3_2, Q5TCQ9 (Q5TCQ9 398-503): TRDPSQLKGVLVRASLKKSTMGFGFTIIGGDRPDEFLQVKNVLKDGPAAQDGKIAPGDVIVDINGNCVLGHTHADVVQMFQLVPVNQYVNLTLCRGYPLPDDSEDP
row,Binder,pKd
1,B1,below the threshold
2,B2,5.21

# Biological target: FRMPD2_1, Q68DX3
# Experiment: holdup assay
# Design: key: below the threshold = too weak to quantify, mostly under pKd 3.1 to 4
# Details: plain residues with an end cap or a label only (N-terminal biotin on a linker: ado-ado)
# Chain of FRMPD2_1, Q68DX3 (Q68DX3 770-861): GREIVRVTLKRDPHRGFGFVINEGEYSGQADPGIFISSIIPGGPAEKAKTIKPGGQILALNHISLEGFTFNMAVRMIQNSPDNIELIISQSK
row,Binder,pKd
1,B1,3.51
2,B2,below the threshold

# Biological target: GRID2IP_1, A4D2P6
# Experiment: holdup assay
# Design: key: below the threshold = too weak to quantify, mostly under pKd 3.1 to 4
# Details: plain residues with an end cap or a label only (N-terminal biotin on a linker: ado-ado)
# Chain of GRID2IP_1, A4D2P6 (A4D2P6 1-87): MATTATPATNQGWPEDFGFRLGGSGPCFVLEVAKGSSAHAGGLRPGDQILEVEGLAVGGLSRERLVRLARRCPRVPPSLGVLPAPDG
row,Binder,pKd
1,B1,below the threshold
2,B2,below the threshold

# Biological target: NHERF4_1, Q86UT5-2
# Experiment: holdup assay
# Design: key: below the threshold = too weak to quantify, mostly under pKd 3.1 to 4
# Details: plain residues with an end cap or a label only (N-terminal biotin on a linker: ado-ado)
# Chain of NHERF4_1, Q86UT5-2 (Q86UT5 other isoform, or with tags, fused parts or gaps): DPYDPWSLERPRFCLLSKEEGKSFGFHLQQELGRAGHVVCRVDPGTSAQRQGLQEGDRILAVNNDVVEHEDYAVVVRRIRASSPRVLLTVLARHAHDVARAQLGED
row,Binder,pKd
1,B1,below the threshold
2,B2,below the threshold

# Biological target: PTPN3, P26045
# Experiment: holdup assay
# Design: key: below the threshold = too weak to quantify, mostly under pKd 3.1 to 4
# Details: plain residues with an end cap or a label only (N-terminal biotin on a linker: ado-ado)
# Chain of PTPN3, P26045 (P26045 505-587): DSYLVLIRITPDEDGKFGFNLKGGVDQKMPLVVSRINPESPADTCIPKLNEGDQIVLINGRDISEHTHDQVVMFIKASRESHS
row,Binder,pKd
1,B1,4.02
2,B2,3.8

# Biological target: T8, APBA1_1, Q02410
# Experiment: holdup assay
# Design: key: below the threshold = too weak to quantify, mostly under pKd 3.1 to 4
# Details: plain residues with an end cap or a label only (N-terminal biotin on a linker: ado-ado)
row,Binder,pKd
1,B1,below the threshold
2,B2,below the threshold

# Biological target: LDB3, O75112
# Experiment: holdup assay
# Design: key: below the threshold = too weak to quantify, mostly under pKd 3.1 to 4
# Details: plain residues with an end cap or a label only (N-terminal biotin on a linker: ado-ado)
# Chain of LDB3, O75112 (O75112 1-94): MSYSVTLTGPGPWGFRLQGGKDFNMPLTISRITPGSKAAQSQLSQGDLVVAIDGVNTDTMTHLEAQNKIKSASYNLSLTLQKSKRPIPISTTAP
row,Binder,pKd
1,B1,below the threshold
2,B2,below the threshold

# Biological target: T9, SHANK1, Q9Y566
# Experiment: holdup assay
# Design: key: below the threshold = too weak to quantify, mostly under pKd 3.1 to 4
# Details: plain residues with an end cap or a label only (N-terminal biotin on a linker: ado-ado)
row,Binder,pKd
1,B1,below the threshold
2,B2,below the threshold

# Biological target: T10, FRMPD1, Q5SYB0
# Experiment: holdup assay
# Design: key: below the threshold = too weak to quantify, mostly under pKd 3.1 to 4
# Details: plain residues with an end cap or a label only (N-terminal biotin on a linker: ado-ado)
row,Binder,pKd
1,B1,below the threshold
2,B2,below the threshold

# Biological target: T11, LRRC7, Q96NW7
# Experiment: holdup assay
# Design: key: below the threshold = too weak to quantify, mostly under pKd 3.1 to 4
# Details: plain residues with an end cap or a label only (N-terminal biotin on a linker: ado-ado)
row,Binder,pKd
1,B1,below the threshold
2,B2,below the threshold

# Biological target: Inadl_2, Q8NI35
# Experiment: holdup assay
# Design: key: below the threshold = too weak to quantify, mostly under pKd 3.1 to 4
# Details: plain residues with an end cap or a label only (N-terminal biotin on a linker: ado-ado)
# Chain of Inadl_2, Q8NI35 (Q8NI35 238-335): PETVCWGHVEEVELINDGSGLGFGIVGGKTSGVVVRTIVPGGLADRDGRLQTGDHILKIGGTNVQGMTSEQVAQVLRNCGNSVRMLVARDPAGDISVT
row,Binder,pKd
1,B1,below the threshold
2,B2,below the threshold

# — PMC9482650, “Quantitative fragmentomics allow affinity mapping of interactomes” (Nature Communications, 2022)
